Experimental data published in the RNAGym collection of RNA variant scans (doi:10.1073/pnas.2313332121).

B1: TPR t1 (parent)
chain: GACCAAUCUGCCCUCAGAGCUCGAGAACAUCUUCGGAUGCAGAGGAGGCAGGCUUCGGUGGCGCGAUAGCGCCAACGUCCUCAACCUCCAAUGCAUCCCACCACAUGAUGAUGCCUGAAGAGCCUUGGUUUUUUG

Variants of: B1
Experiment: polymerase ribozyme fitness, log enrichment relative to wild type (log ratio); higher = more active; in vitro selection for triplet polymerase activity
In short: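 Each subunit of a heterodimeric triplet polymerase ribozyme was represented by a PCR-built, transcribed mutant library that underwent triplicate single-round in vitro selection with frozen incubation at −7 °C. Extended constructs were recovered by gel excision, streptavidin-bead capture and RT-PCR, and Illumina sequencing of input and output libraries kept genotypes with ≥10 input reads and ≥1 read per output. Fitness is the logarithm of genotype enrichment relative to wild-type enrichment, from inverse-variance-weighted replicate averages, with a logarithm base of 2.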

Row | Variant | polymerase ribozyme fitness (log ratio)
1 | GACCAAUCUGUCCUCAGAGCUCGAGAACAUCUUCGGAUGGAGAGGAGGAAGGCUGCGGUGACGCGAUAGCGCCAACGUCCUCAACCUCCAAUGCAUCCCACCACAUGAUGAUGCCUGAAGAGCCUUGGUUUUUUG | -1.51
2 | GACCAAUCUGCCCUCAGAGCUCGAGAACAUCUUCGGAUGCAGAGGAGGCAGGCUUUGGUGGCGCGAUAGCGCCAACGUCCUCAACCUCCAAUGCAUCCCACCACAUGAUGAUGCCUGAAGAGCCAUGGUUUUUUG | -0.748
3 | GACCAAUCUGCCCUCAGAGCUCGAGAACAUCUUCGGAUGCAGAGGAGGCAGGCUUGGGUGGCGCGAUAGCGCCAACGUCCUCAACCUCCAAUGCAUCCCACCACAUGAUGAUGCCUGAAGAGCCUUGGUUUUUUU | -1.35
4 | GACCAAUCUACCCUCAGAGCUCGAGAACAUCUUCGGUUGCAGAGGAGGCAGGCUUCGGUGGCGCGAUAGCGACAACCUCCUCAACCUCCAAUGCAUCCCACCACAUGAUGAUAUCGGAAGAGCCUUGAUUUUUUG | -7.17
5 | GACCAAUCUGCCCUCAGAGCUCAAGAACAUUUUCGGAUGCAGAGGAGGCAGGCUUCGGUGGCGCGAUAGCGCCAACGUCCUCAACCUCCAAUGCAUCCCACCACAUGAUGAUGCCUGAAGAUCGUUGGUUUUUUG | -7.15
6 | GACCAAUGUGCCCUCAGAGCUCGAGAACAUCUUCGGAUGCAGAGGAGGCAGGCGUCGGUGGCGUGAUAGCGCCAACGUCCUCAACCUCGAAUGCAUCCCACCACAUGAUGAUGCCUGAAGAGCCUUGGUUUUUUG | -4.42
7 | GACCAAUCUGCCCUCAGAGCUCGAGAACAUCUUCGGAUGCAGAGGAGGCAGGCUUUGGUGGCGCGAUAGUGCCAACGUCCUCAACCUCCAAUGCAUCCCACCACAUGAUGAUGCCUGAAGAGCCUUGGUUUUUUG | -0.666
8 | GACCAAUCUGCCCUCAGAGCUCGAGAACAUCUUCGGAUGCAGAGGAGGCAGGCUGCGGUGGCACGAUAGCGCCAACGUCCCCAACCUCCAAUGCAUCCCACCACAUGAUGAUGCCUGAAGAGCCUUGGUUUUUUG | -3.9
9 | GACCAAUCUGCCCUCAGAGCUCGAGAACAUCUUCGGAUGCAGAGGAGGUAGGCUUCGGUGGCGCGAUAGCGCCAACGUCCUCAACCUCCAAUGCAUCCCACCACAUGAUGAUGCCUGAAAAGCCUUGGUUUUUUG | 0.0229
10 | GACCAAUCUGCCCUCAGAGCUCGAGAACAUCUUCGGAUGCAGAGGAAGCAGGUCUCGGUGGCGCGAUAGCGCCAACGUCCUCAACCUCCAAUGCAUCCCACCACAUGAUGAUGCCUGAAGAGCCUUGGUUUUUUG | -1.11
11 | GACCAAUCUGCCCUCAGAGCUCGGGAACAUCUUCGGAUGCAGAGGAGGCAGGCUUCGGUGGCCCGAUAGCUCCAACGUCCUCAACCUCCAAUGCAUCCCACCACAUGAUGAUGCCUGAAGAGGCUUGGUUUUUUG | -5.78
12 | GACCAAUCUGCCCUCAGAGCUCGAGAACAUCUUCGGAUGCAGAGGAGUCAGUCUUCGGUGGCGCGAUAGCGCUAACGUCCUCAACCUCCUAUGCAUCCCACCACAUGAUGAUGCCUGAAGAGCGUUGGUUUUUUG | -1.99
13 | GACCAAUCUGCCCUCAGAGCUCGAGAACCUCUUCGGAUGCAGAGGAGGCAGGCUUCGGUGUCGCGAUAGUGCCAGCGGCCUCAACCUCCAAUGCAUCCCACCACAUGAUGAUGCCUGAAGAGCCUUGGUUUUUUG | -3.77
14 | GAUAAAUCUGCCCUCAGAGCUCGAGAACAUCUUCGGAUGCAGAGGAGGCAGGGUUCGGUGGCGCGAUAGCGCCAACGUCCUCAACCUUCCAUGCAUCCCACCACAUGAUGAUGCCUGAAGAGACUUGGUCUUUUG | -0.356
15 | GACCAAUCUGCCGUCAGAGCUCGAGAACAUCUUCGGAUGCAGAGGAGGCAGGCUUCGGUGGCGCGAUAGCGCCAACGUCCUCCACCUCCAAUGGAUCCCACCACAUGAUGAUGCCUGAUGAGGCUUCGUUUUUUU | -3.17
16 | GACCAAUCUGCCCUCAGAGCUCGAGAACAUCUUCGGAUGCAGAGGAGGCAGGCUUCGGUGGCGCGAUAGCGACAACGUCCUCAAACUCCAAUGCAUCCCACCACAUGAUGAUGCCUGAAGAGCCUUGGUUUUUUG | 0.00801
17 | GACCAAUCUGCCCUCAGAGUUCGAGAACAUCUUCGUAUGCAGAGGAGGCAGGCUUCGGUGGCGCGAUAGCGCCAACGUCCUCAACCUCCAAUGCAUCCCACCACAUGAUGAUGCCUGAAGAGCCUUGGUUUUUUU | -2.95
18 | GACCAAUCUGCCCUCAGAGCUCCAGAACAUCUUCGGAUGCAGAGGAGGCAGGCUUCGGUGGCGCGAUAACGCCAACGUCCUCAACCUCCAAUGCAUCCCACCACAUGAUGAUGCCUGAAGAGCCUUGGUUUUUUG | -7.97
19 | GACCAAUCUGCCCUCAGAGCUCGAGAACAUCUUCGGAUGCAGAGGAGGCAGGCUUCGGUGGCGCGAUAGCGCCAACGUCCUCAACCUCUAAUGCAUCCCAACACAUGAUGAUGCCUGAAGAGCCUUGGUUUUUUG | -1.39
20 | GACCAAUCUGCCCUCAAAGCUCGAGAACAUCUUCGGAUGCAGAGGAGGCAGGCUUCGGUGGCGCGAUAGCGCCAACGUCCUCAACCUCCAAUGCAUCCCACCACAUGAUGAUGCCUGAAUAGCCUUGGUUUUUUG | -1.62
21 | GACCAAUCUGCCCUCAGAGCUCGAGAACAUCUUCGGAUGCAGAGGAGGCAGGCUUCGGUGGCGCGAUAGCGCUAACGUCCUCAACCUCCAUUGCAACCCACCACAUGAUGAAGCCUGAAUAGCCUUGGUUUUUUG | -3.6
